Test results taken from patent US7176293B1, “Compositions and methods to enhance sensitivity of cancer cells to mitotic stress” (The Wistar Institute of Anatomy and Biology, priority 1999, dated 2007).

B1: Chfr-M580: chfr protein bearing a substitution of Val580 with Met (protein, UniProt Q96EP1 1-664, looked up, variant V580M)
E3 ubiquitin-protein ligase …: MERPEEGKQSPPPQPWGRLLRLGAEEGEPHVLLRKREWTIGRRRGCDLSFPSNKLVSGDHCRIVVDEKSGQVTLEDTSTSGTVINKLKVVKKQTCPLQTGDVIYLVYRKNEPEHNVAYLYESLSEKQGMTQESFEANKENVFHGTKDTSGAGAGRGADPRVPPSSPATQVCFEEPQPSTSTSDLFPTASASSTEPSPAGRERSSSCGSGGGGISPKGSGPSVASDEVSSFASALPDRKTASFSSLEPQDQEDLEPVKKKMRGDGDLDLNGQLLVAQPRRNAQTVHEDVRAAAGKPDKMEETLTCIICQDLLHDCVSLQPCMHTFCAACYSGWMERSSLCPTCRCPVERICKNHILNNLVEAYLIQHPDKSRSEEDVQSMDARNKITQDMLQPKVRRSFSDEEGSSEDLLELSDVDSESSDISQPYVVCRQCPEYRRQAAQPPHCPAPEGEPGAPQALGDAPSTSVSLTTAVQDYVCPLQGSHALCTCCFQPMPDRRAEREQDPRVAPQQCAVCLQPFCHLYWGCTRTGCYGCLAPFCELNLGDKCLDGVLNNNSYESDILKNYLATRGLTWKNMLTESLMALQRGVFLLSDYRVTGDTVLCYCCGLRSFRELTYQYRQNIPASELPVAVTSRPDCYWGRNCRTQVKAHHAMKFNHICEQTRFKN
B2: Chfr-A325: Chfr mutant that substitutes Cys325 of the ring finger with Ala (protein, UniProt Q96EP1 1-664, looked up, variant C325A)
E3 ubiquitin-protein ligase …: MERPEEGKQSPPPQPWGRLLRLGAEEGEPHVLLRKREWTIGRRRGCDLSFPSNKLVSGDHCRIVVDEKSGQVTLEDTSTSGTVINKLKVVKKQTCPLQTGDVIYLVYRKNEPEHNVAYLYESLSEKQGMTQESFEANKENVFHGTKDTSGAGAGRGADPRVPPSSPATQVCFEEPQPSTSTSDLFPTASASSTEPSPAGRERSSSCGSGGGGISPKGSGPSVASDEVSSFASALPDRKTASFSSLEPQDQEDLEPVKKKMRGDGDLDLNGQLLVAQPRRNAQTVHEDVRAAAGKPDKMEETLTCIICQDLLHDCVSLQPCMHTFAAACYSGWMERSSLCPTCRCPVERICKNHILNNLVEAYLIQHPDKSRSEEDVQSMDARNKITQDMLQPKVRRSFSDEEGSSEDLLELSDVDSESSDISQPYVVCRQCPEYRRQAAQPPHCPAPEGEPGAPQALGDAPSTSVSLTTAVQDYVCPLQGSHALCTCCFQPMPDRRAEREQDPRVAPQQCAVCLQPFCHLYWGCTRTGCYGCLAPFCELNLGDKCLDGVLNNNSYESDILKNYLATRGLTWKNMLTESLVALQRGVFLLSDYRVTGDTVLCYCCGLRSFRELTYQYRQNIPASELPVAVTSRPDCYWGRNCRTQVKAHHAMKFNHICEQTRFKN
B3: GST-Chfr: glutathione S-transferase fused to the N-terminus of full-length Chfr (protein)
chain: MERPEEGKQSPPPQPWGRLLRLGAEEGEPHVLLRKREWTIGRRRGCDLSFPSNKLVSGDHCRIVVDEKSGQVTLEDTSTSGTVINKLKVVKKQTCPLQTGDVIYLVYRKNEPEHNVAYLYESLSEKQGMTQESFEANKENVFHGTKDTSGAGAGRGADPRVPPSSPATQVCFEEPQPSTSTSDLFPTASASSTEPSPAGRERSSSCGSGGGGISPKGSGPSVASDEVSSFASALPDRKTASFSSLEPQDQEDLEPVKKKMRGDGDLDLNGQLLVAQPRRNAQTVHEDVRAAAGKPDKMEETLTCIICQDLLHDCVSLQPCMHTFCAACYSGWMERSSLCPTCRCPVERICKNHILNNLVEAYLIQHPDKSRSEEDVQSMDARNKITQDMLQPKVRRSFSDEEGSSEDLLELSDVDSESSDISQPYVVCRQCPEYRRQAAQPPHCPAPEGEPGAPQALGDAPSTSVSLTTAVQDYVCPLQGSHALCTCCFQPMPDRRAEREQDPRVAPQQCAVCLQPFCHLYWGCTRTGCYGCLAPFCELNLGDKCLDGVLNNNSYESDILKNYLATRGLTWKNMLTESLVALQRGVFLLSDYRVTGDTVLCYCCGLRSFRELTYQYRQNIPASELPVAVTSRPDCYWGRNCRTQVKAHHAMKFNHICEQTRFKN
modifications: left off: a dimerising Fc or GST

Tests used:
[1] = test system: DLD1 and U20S cells; assay: Mitotic index of stably transfected DLD1 and U20S cells in response to nocodazole; assay type: cell-based, human
Description: (§1) Stable transfectants were prepared by transfecting DLD1 or U20S cells with 5 μg pSV2-HAchfr or pSV2-HAchfr-M580, or 5 μg pSV2 vector without insert and 1 μg pSV7neo plasmid [Wieczorek et al., supra] using Fugene-6 transfection reagent (Roche). Stably transfected cells were selected with G418. For transient expression, DLD1 or U20S cells were transfected with 5 μg pSV2-HAchfr or pSV2-HAchfrM580 or pSV2 plasmid without insert and 2 μg of a plasmid expressing green fluorescent protein using Fugene-6. SAOS2 cells were transfected as described above, except that the plasmids expressing Chfr were cotransfected with a plasmid expressing green fluorescent protein (GFP).
(§2) Cells were grown on 8-well culture slides coated with human fibronectin (Becton Dickinson) and were examined as either non-synchronized or synchronized cells. […] The slides were sealed with coverslips using Fluoromount-G (Upstate Biotechnology) and visualized with a fluorescence microscope (Leica). […]
To determine whether Chfr accounted for the different response, DLD1 and U20S cells were prepared to stably express HA-tagged wild-type Chfr or Chfr with the […] substitution (M580) or just the neo selectable marker. […] Furthermore, the different effects of wild-type Chfr and Chfr-M580 could not be attributed to differences in protein expression, as determined by immunoblotting. […]

[2] = test system: DLD1 cells; assay: Mitotic index of transiently-transfected DLD1 cells exposed to mitotic stress; assay type: cell-based, human; conditions: DLD1 cells co-transfected with wild-type Chfr
Description: as §1, §2
About 50% of the cells expressed GFP, but the variable level of expression made it difficult to define a threshold above which a cell would be considered GFP-positive. Thus, to avoid any bias, the mitotic index was calculated for the entire cell population. […]

[3] = test system: Chfr; assay: Ubiquitin-protein ligase assay in vitro; assay type: biochemical, human; conditions: crude bacterial lysates with E1, E2, ubiquitin and ATP; 20 minutes at 30° C.
Description: Recombinant E. coli bacterial cells that have been genetically engineered to express the E1 ubiquitin-activating enzyme and the E2 ubiquitin-conjugating enzyme (either UbchD2 or Ubch8) and a […] comprised of glutathione S-transferase fused to the N-terminus of Chfr were lysed. The lysates were incubated in the presence of ubiquitin and ATP and the reaction allowed to proceed for 20 minutes at 30° C. GST-Chfr was captured on glutathione beads, eluted with SDS sample buffer, and resolved by SDS-PAGE. The SDS gel was immunoblotted with antibodies that recognize ubiquitin. Reactions were performed with full-length Chfr fused to GST and reactions were performed with Chfr lacking amino acid residues 1–280 of SEQ ID NO: 2, which contain the FHA domain.

[4] = test system: DLD1 cells; assay: Mitotic index of unsynchronized DLD1 cells stably expressing Chfr or Chfr-A325, exposed to nocodazole; assay type: cell-based, human; conditions: stably transfected unsynchronized DLD1 cells
Excerpt: To determine whether ubiquitin-protein ligase activity is required for checkpoint function, the Chfr mutant that substitutes Cys325 of the ring finger with Ala was stably-expressed in DLD1 cells. These cells were then exposed to mitotic stress and examined for entry into metaphase. The mitotic index of unsynchronized DLD1 cells exposed to nocodazole is high, indicating the absence of a checkpoint that would delay entry into metaphase in response to mitotic stress.

Row | Molecule | mitotic index in response to nocodazole [1] | dominant negative effect on wild-type Chfr [2] | ubiquitin-protein ligase activity (ubiquitination of GST-Chfr) [3] | mitotic index after exposure to nocodazole [4]
1 | B1 | high mitotic index | aid not act as a dominant negative mutant | – | –
2 | B2 | – | – | lacks ubiquitin-protein ligase activity | did not lead to a low mitotic index
3 | B3 | – | – | efficient ubiquitination | –
